Measurements reported in patent US10233241B2 (priority 2014, dated 2019).
Positions count from the first letter of the chain named.

B1: XA8635: Mor1-specific VHH, SEQ ID NO: 5, Profile II, binds extracellular part and orthosteric pocket (protein, listed as Lama glama)
VHH: QVQLVESGGGLVQAGGSLRLSCAASGSISSISTMGWYRQAPGNERELVAAITSGGSTNYADSVKGRFTISRDNAKNTVYLQMNSLKPEDTAVYYCNFKYYSGSYFYKSEYDYWGQGTQVTVSSAAAHHHHHHGAAEQKLISEEDLNGAA
B2: XA8633: Mor1-specific VHH, SEQ ID NO: 1, Profile I, candidate G-protein mimicking, active state stabilizing (protein, listed as Lama glama)
VHH: QVQLVESGGGLVRPGGSRRLSCVDSERTSYPMGWFRRAPGKEREFVASITWSGIDPTYADSVADRFTISRDVANNTLYLQMNSLKHEDTAVYYCAARAPVGQSSSPYDYDYWGQGTQVTVSSAAAHHHHHHGAAEQKLISEEDLNGAA
B3: XA8643: Mor1-specific VHH, SEQ ID NO: 4, Profile I (protein, listed as Lama glama)
VHH: B2 VHH with R18L
B4: XA8641: Mor1-specific VHH, SEQ ID NO: 3, Profile I (protein, listed as Lama glama)
VHH: B2 VHH with R18L, E26G
B5: XA8639: Mor1-specific VHH, SEQ ID NO: 2, Profile I, G-protein mimetic (protein, listed as Lama glama)
VHH: B2 VHH with R18L, I68T
B6: XA8727: Mor1-specific VHH, SEQ ID NO: 6, Profile III, intracellular binder (protein, listed as Lama glama)
VHH: QVQLVESGGGLVQAGGSLRLSCAASGFTFDDYAIAWFRQAPGKEREGVSCISSSDGSTYYADSVKGRFTISNDNAKNTVYLQMNSLKPEDTAVYYCAADLSRSCGRGYRYLEVWGQGTQVTVSSAAAHHHHHHGAAEQKLISEEDLNGAA
B7: XA9644: Profile III VHH of a new sequence family, SEQ ID NO: 74 (protein, listed as Lama glama)
VHH: QVQLVESGGGLVRPGGSLRLSCVDSERIFSISAMGWYRQAPGKQRELVATITSGGTTNYADSVKGRFTISGDTAKNMVYLQMSSLKPEDTAVYYCAADMEVWDYTDGDDDDYWGQGTQVTVSSAAAHHHHHHGAAEQKLISEEDLNGAA
B8: bivalent XA8635: genetic head to tail fusion of XA8635, separated by a 9GS linker, SEQ ID NO: 49 (protein)
chain: QVQLVESGGGLVQAGGSLRLSCAASGSISSISTMGWYRQAPGNERELVAAITSGGSTNYADSVKGRFTISRDNAKNTVYLQMNSLKPEDTAVYYCNFKYYSGSYFYKSEYDYWGQGTQVTVSSGGGGSGGGSQVQLQESGGGLVQAGGSLRLSCAASGSISSISTMGWYRQAPGNERELVAAITSGGSTNYADSVKGRFTISRDNAKNTVYLQMNSLKPEDTAVYYCNFKYYSGSYFYKSEYDYWGQGTQVTVSSAAAEQKLISEEDLNGAAHHHHHH

What was measured:
[1] = test system: β-arrestin1 or β-arrestin2; conditions: cell culture assays; cited from earlier work
[2] = test system: inflammatory pain model in rat; conditions: cited from earlier work
[3] = biological target: T1, Delta mMor1 (Mus musculus, UniProt P42866, INS358LEVLFQGP/INS51ENLYFQ); test: Flow cytometry binding of VHHs to Delta mMor1/Sf9 cells with or without Mor1 ligand; conditions: for Side of Mor1 bound (intact versus permeable Sf9 cells, Topro3 gating) / Flow cytometry binding profile on Delta mMor1/Sf9 cells: periplasmic extracts; for Flow cytometry binding profile on Delta mMor1/Sf9 cells: no ligand, 20 μM Dmt1-Dalda or 20 μM naloxone, mock GPCR Sf9 as control
T1 construct: expressed in transfected cells; host or cells: Sf9 insect cells, baculovirus-infected (BestBac)

[4] = biological target: T2, truncDelta mMor1 (Mus musculus, UniProt P42866); test: ELISA of VHH binding to truncDelta mMor1 reconstituted in liposomes; conditions: periplasmic extracts, 10 μM Dmt1-Dalda
T2 construct: N- and C-termini are removed by enzymatic proteolysis, resulting in truncDelta mMor1; TEV cleavage site ENLYFQ (after G51 of P42866) (internal); made in house; host or cells: Sf9 insect cells (baculovirus); purified and reconstituted into lipid vesicles

[5] = biological target: T3, WT human Mor1 (Homo sapiens, UniProt P35372); test: Radioligand displacement by XA8635 on WT human hMor1/CHO membranes; format: binding; conditions: 5 μg WT human hMor1/CHO membranes, 1 nM radioligand, no agonist
T3 construct: purchased Perkin Elmer ES-542-M400UA; host or cells: CHO cells overexpressing wild-type human Mor1 (membranes)
T3 sequence (P35372 whole entry): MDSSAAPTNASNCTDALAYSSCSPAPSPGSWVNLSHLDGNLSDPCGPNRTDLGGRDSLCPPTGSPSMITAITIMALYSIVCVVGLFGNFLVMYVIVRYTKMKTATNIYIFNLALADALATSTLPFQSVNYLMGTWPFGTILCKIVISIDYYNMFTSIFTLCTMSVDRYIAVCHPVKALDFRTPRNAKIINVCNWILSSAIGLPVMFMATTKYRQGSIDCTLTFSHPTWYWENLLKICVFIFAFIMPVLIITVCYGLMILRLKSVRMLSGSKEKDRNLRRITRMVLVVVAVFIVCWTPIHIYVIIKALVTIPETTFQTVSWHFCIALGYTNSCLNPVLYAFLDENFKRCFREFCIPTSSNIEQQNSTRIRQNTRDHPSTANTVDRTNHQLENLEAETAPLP
Method: (§1) A radioligand competition assay was performed as described in Example 6 with minor modifications: 5 μg of WT human hMor1/CHO membranes or 7 μg of Delta mMor1/Sf9 membranes were incubated with a concentration range of purified XA8635 and 1 nM of the radioligand (no agonist was added). The mixture was incubated for 1 hour at RT and after washing, filter bound radioligand was measured.

[6] = biological target: T1, Delta mMor1; test: Radioligand displacement by XA8635 on Delta mMor1/Sf9 membranes; format: binding; conditions: 7 μg Delta mMor1/Sf9 membranes, 1 nM radioligand, no agonist
Method: as §1

[7] = biological target: T4, human Mor1 (Homo sapiens, UniProt P35372); test: Flow cytometry binding of mono- and bivalent XA8635 to Mor overexpressing CHO cells; conditions: for Binding to Mor overexpressing CHO cells vs parental non-transfected CHO cells: absence of any Mor1 ligand
T4 construct: expressed in transfected cells; host or cells: CHO cells
T4 sequence (P35372 whole entry): as above

[8] = biological target: T5, Mor1 (Mus musculus, UniProt P42866); test: Affinity of XA8635 for ligand-free Mor1; conditions: read-out: Ki of binding to the receptor
[9] = biological target: T5, Mor1; format: binding

Molecule | Side of Mor1 bound (intact versus permeable Sf9 cells, Topro3 gating) [3] | Flow cytometry binding profile on Delta mMor1/Sf9 cells [3] | Binding to truncDelta mMor1 liposomes in ELISA [4] | also measured
COC(=O)[C@@H]1C[C@H](OC(=O)c2ccccc2)C(=O)[C@H]2[C@@]1(C)CC[C@H]1C(=O)O[C@H](c3ccoc3)C[C@]21C [herkinorin] | – | – | – | Recruitment of β-arrestin1 or β-arrestin2 [1]: does not recruit β-arrestin1 or β-arrestin2; Antinociception in morphine-tolerant rats ([2]; morphine-tolerant rats): produces antinociception in morphine-tolerant rats; Formalin-induced flinching ([2]; rat, 10 mg/kg, i.pl., reversed by naloxone): reduces formalin-induced flinching to the same degree as morphine; Antinociceptive tolerance ([2]; repeated treatment over a 5-day period): does not develop
B1 | extracellular part of the receptor | Profile II | confirmed to bind Mor1 in ELISA | Fluorescence profile of purified VHH compared to the one obtained with periplasm ([3]; 1 μM purified VHH): identical fluorescence profile; Binding to Sf9 cells overexpressing Mor1 in presence of Mor1 ligand (agonist or antagonist) ([3]; 1 μM purified VHH, intact and permeable cells): loses its ability to specifically bind; Radioligand displacement [5]: dose-dependent increase in radioligand displacement; Radioligand displacement [6]: dose-dependent increase in radioligand displacement; Binding to Mor overexpressing CHO cells vs parental non-transfected CHO cells [7]: dose-dependent specific binding; Ki [8]: ~0.012 µM
B2 | intracellular epitopes | Profile I | confirmed to bind Mor1 in ELISA | Fluorescence profile of purified VHH compared to the one obtained with periplasm ([3]; 1 μM purified VHH): identical fluorescence profile
B3 | intracellular epitopes | Profile I | confirmed to bind Mor1 in ELISA | –
B4 | intracellular epitopes | Profile I | confirmed to bind Mor1 in ELISA | –
B5 | intracellular epitopes | Profile I | confirmed to bind Mor1 in ELISA | Enhancement of affinity for BU72 [9]: 176 fold
B6 | intracellular part of Mor1 | Profile III | confirmed to bind Mor1 in ELISA | –
B7 | – | Profile III | – | –
B8 | – | – | – | Increased fluorescence versus monovalent XA8635 ([7]; 1 μM): approximately 34%; Binding to Mor overexpressing CHO cells vs parental non-transfected CHO cells [7]: dose-dependent specific binding
